Numbering of substitutions follows the chain as printed.
B1: AE11-7 (antibody, V domains shown)
VH: EVQLVQSGAEVKKPGASVKVSCKTSGYSLTQYPIHWVRQAPGQRPEWMGWISPGNGNTKLSPKFQGRVTLSRDASAGTVFMDLSGLTSDDTAVYFCTSVDLGDHWGQGTLVTVSS
VL: DIVMTQSPEFQSVTPKEKVTITCRASQSIGSSLHWYQQKPDQSPKLLINYASQSFSGVPSRFSGGGSGTDFTLTINSLEAEDAATYYCHQSSNLPITFGQGTRLEIK
notes: Fully human anti-TNF antibody isolated by in vitro display; also called AE11-7 VH; AE11-7 VL
B2: TNF-JK1 (antibody, V domains shown)
VH: EVQLVESGGGLVQPGGSLRLSCATSGFTFNNYWMSWVRQAPGKGLEWVANINHDESEKYYVDSAKGRFTISRDNAEKSLFLQMNSLRAEDTAVYYCARIIRGRVGFDYYNYAMDVWGQGTLVTVSS
VL: DIRLTQSPSPLSASVGDRVTITCRASQSIGNYLNWYQHKPGKAPKLLIYAASSLQSGVPSRFSGTGSGTDFTLTISSLQPEDFATYYCQESYSLIFAGGTKVEIK
notes: Fully human anti-TNF antibody isolated by in vitro display; also called TNF-JK1 VH; TNF-JK1 VL
B3: hMAK199-1-h10F7-M10.8 DVD-Ig (bispecific antibody, human IgG1, kappa, L234A L235A)
heavy: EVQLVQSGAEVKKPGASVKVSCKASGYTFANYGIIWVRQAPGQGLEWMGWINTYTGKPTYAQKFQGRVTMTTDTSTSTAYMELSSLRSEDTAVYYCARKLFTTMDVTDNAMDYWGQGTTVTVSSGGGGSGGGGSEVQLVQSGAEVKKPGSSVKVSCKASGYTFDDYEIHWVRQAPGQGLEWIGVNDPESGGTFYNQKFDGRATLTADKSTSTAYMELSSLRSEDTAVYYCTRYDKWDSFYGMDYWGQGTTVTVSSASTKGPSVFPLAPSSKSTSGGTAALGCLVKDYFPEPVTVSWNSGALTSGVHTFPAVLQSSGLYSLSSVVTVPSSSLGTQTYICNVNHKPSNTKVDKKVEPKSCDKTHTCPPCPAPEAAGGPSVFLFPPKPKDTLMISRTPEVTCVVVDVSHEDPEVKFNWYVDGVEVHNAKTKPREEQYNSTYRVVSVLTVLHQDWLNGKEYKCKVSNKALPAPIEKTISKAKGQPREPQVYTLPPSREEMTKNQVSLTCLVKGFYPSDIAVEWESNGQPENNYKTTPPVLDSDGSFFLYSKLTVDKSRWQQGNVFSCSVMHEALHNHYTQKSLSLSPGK
light: DIQMTQSPSSLSASVGDRVTITCRASQDISQYLNWYQQKPGKAPKLLIYYTSRLQSGVPSRFSGSGSGTDFTLTISSLQPEDFATYFCQQGNTWPPTFGQGTKLEIKRGGSGGGGSGDIQMTQSPSSLSASVGDRVTITCSASSGSISYIDWFQQKPGKAPKRLIYATFELASGVPSRFSGSGSGTDFTLTISSLQPEDFATYYCHQLGSYPDTFGQGTKLEIKRTVAAPSVFIFPPSDEQLKSGTASVVCLLNNFYPREAKVQWKVDNALQSGNSQESVTEQDSKDSTYSLSSTLTLSKADYEKHKVYACEVTHQGLSSPVTKSFNRGEC
notes: DVD-Ig; IgG1 234,235 mut, kappa; GS10 linkers; also called HMAK199-1-GS10-H10F7-M10 DVD
B4: hMAK199-1-h10F7-M11.8 DVD-Ig wt (bispecific antibody, human IgG1, kappa)
heavy: not shown
light: B3 light with S141R, S146I, E170D, F188Y, H206R, L208V, D213E
notes: DVD-Ig; wild-type IgG1, kappa; GS10 linkers; Uncertain; also called HMAK199-1-h10F7-M11.8 HC DVD wt
B5: hMAK199-1-h10F7-M11.8 DVD-Ig (bispecific antibody, human IgG1, kappa, L234A L235A)
heavy: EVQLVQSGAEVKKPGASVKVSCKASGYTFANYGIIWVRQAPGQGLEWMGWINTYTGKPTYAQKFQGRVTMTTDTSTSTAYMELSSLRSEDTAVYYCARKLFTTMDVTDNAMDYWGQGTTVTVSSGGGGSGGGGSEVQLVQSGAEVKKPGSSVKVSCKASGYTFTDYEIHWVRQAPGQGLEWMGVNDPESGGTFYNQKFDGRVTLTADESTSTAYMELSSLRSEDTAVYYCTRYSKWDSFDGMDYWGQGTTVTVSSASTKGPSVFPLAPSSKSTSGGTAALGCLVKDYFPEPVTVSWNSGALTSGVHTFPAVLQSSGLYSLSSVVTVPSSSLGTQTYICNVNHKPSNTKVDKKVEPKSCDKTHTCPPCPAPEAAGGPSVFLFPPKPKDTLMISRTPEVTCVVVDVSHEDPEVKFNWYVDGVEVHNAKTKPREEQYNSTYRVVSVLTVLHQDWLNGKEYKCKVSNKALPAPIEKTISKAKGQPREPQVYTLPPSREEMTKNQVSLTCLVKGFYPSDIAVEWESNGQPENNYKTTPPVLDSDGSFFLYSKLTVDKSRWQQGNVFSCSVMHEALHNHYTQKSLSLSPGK
light: B3 light with S141R, S146I, E170D, F188Y, H206R, L208V, D213E
notes: DVD-Ig; IgG1 234,235 mut, kappa; GS10 linkers; also called HMAK199-1-GS10-H10F7-M11 DVD
B6: hMAK199-1-h10F7-M11.8 YTE DVD-Ig (bispecific antibody, human IgG1, kappa, L234A L235A)
heavy: EVQLVQSGAEVKKPGASVKVSCKASGYTFANYGIIWVRQAPGQGLEWMGWINTYTGKPTYAQKFQGRVTMTTDTSTSTAYMELSSLRSEDTAVYYCARKLFTTMDVTDNAMDYWGQGTTVTVSSGGGGSGGGGSEVQLVQSGAEVKKPGSSVKVSCKASGYTFTDYEIHWVRQAPGQGLEWMGVNDPESGGTFYNQKFDGRVTLTADESTSTAYMELSSLRSEDTAVYYCTRYSKWDSFDGMDYWGQGTTVTVSSASTKGPSVFPLAPSSKSTSGGTAALGCLVKDYFPEPVTVSWNSGALTSGVHTFPAVLQSSGLYSLSSVVTVPSSSLGTQTYICNVNHKPSNTKVDKKVEPKSCDKTHTCPPCPAPEAAGGPSVFLFPPKPKDTLYITREPEVTCVVVDVSHEDPEVKFNWYVDGVEVHNAKTKPREEQYNSTYRVVSVLTVLHQDWLNGKEYKCKVSNKALPAPIEKTISKAKGQPREPQVYTLPPSREEMTKNQVSLTCLVKGFYPSDIAVEWESNGQPENNYKTTPPVLDSDGSFFLYSKLTVDKSRWQQGNVFSCSVMHEALHNHYTQKSLSLSPGK
light: B3 light with S141R, S146I, E170D, F188Y, H206R, L208V, D213E
notes: DVD-Ig; IgG1 (234,235) mut with YTE mutations, kappa; GS10 linkers
B7: hMAK199-1-h10F7-M11.8 QL DVD-Ig (bispecific antibody, human IgG1, kappa, L234A L235A)
heavy: B6 heavy with T388Q, Y390M, T392S, E394T, M566L
light: B3 light with S141R, S146I, E170D, F188Y, H206R, L208V, D213E
notes: DVD-Ig; IgG1 (234,235) mut with QL mutations, kappa; GS10 linkers
B8: h10F7-M10-hMAk195-24.8 DVD-Ig (bispecific antibody, human IgG1, kappa, L234A L235A)
heavy: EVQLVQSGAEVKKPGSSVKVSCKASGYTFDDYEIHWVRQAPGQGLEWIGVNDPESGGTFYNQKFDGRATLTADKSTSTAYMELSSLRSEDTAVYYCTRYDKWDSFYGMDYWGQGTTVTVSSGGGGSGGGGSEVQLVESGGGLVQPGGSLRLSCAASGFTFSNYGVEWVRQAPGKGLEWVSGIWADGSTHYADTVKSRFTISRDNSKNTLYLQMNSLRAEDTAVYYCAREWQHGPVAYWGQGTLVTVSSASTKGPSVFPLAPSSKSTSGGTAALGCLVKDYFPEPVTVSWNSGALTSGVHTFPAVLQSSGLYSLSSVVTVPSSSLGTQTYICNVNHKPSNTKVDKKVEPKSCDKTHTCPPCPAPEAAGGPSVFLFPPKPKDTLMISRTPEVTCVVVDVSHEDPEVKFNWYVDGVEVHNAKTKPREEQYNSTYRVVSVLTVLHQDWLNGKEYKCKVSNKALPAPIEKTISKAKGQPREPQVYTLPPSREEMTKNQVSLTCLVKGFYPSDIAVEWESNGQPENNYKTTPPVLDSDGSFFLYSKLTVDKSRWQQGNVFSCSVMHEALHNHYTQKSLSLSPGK
light: DIQMTQSPSSLSASVGDRVTITCSASSGSISYIDWFQQKPGKAPKRLIYATFELASGVPSRFSGSGSGTDFTLTISSLQPEDFATYYCHQLGSYPDTFGQGTKLEIKRGGSGGGGSGDIQMTQSPSSLSASVGDRVTITCKASQLVSSAVAWYQQKPGKAPKLLIYWASTLHTGVPSRFSGSGSGTDFTLTISSLQPEDFATYYCQQHYRTPFTFGQGTKLEIKRTVAAPSVFIFPPSDEQLKSGTASVVCLLNNFYPREAKVQWKVDNALQSGNSQESVTEQDSKDSTYSLSSTLTLSKADYEKHKVYACEVTHQGLSSPVTKSFNRGEC
B9: AE11-1 (antibody, V domains shown)
VH: EVQLVQSGAEVKKPGASVKVSCKASGYTFTSYDVNWVRQATGQGLEWMGWMNPNSGNTGYAQKFQGRVTITADESTSTAYMELSSLRSEDTAVYYCAIFDSDYMDVWGKGTLVTVSS
VL: SYELTQPPSVSLSPGQTARITCSGDALPKQYAYWYQQKPGQAPVLVIYKDTERPSGIPERFSGSSSGTTVTLTISGAQAEDEADYYCQSADSSGTSWVFGGGTKLTVL
notes: Fully human anti-TNF antibody isolated by in vitro display; also called AE11-1 VH; AE11-1 VL
B10: AE11-5 (antibody, V domains shown)
VH: EVQLVQSGAEVKKPGSSAKVSCKASGGTFSSYAISWVRQAPGQGLEWMGGIIPILGTANYAQKFLGRVTITADESTSTVYMELSSLRSEDTAVYYCARGLYYDPTRADYWGQGTLVTVSS
VL: DIVMTQSPDFHSVTPKEKVTITCRASQSIGSSLHWYQQKPDQSPKLLIRHASQSISGVPSRFSGSGSGTDFTLTIHSLEAEDAATYYCHQSSSSPPPTFGQGTQVEIK
notes: Fully human anti-TNF antibody isolated by in vitro display; also called AE11-5 VH; AE11-5 VL

Assays:
[1] = target: T1, Human TNF (human, UniProt P01375 77-233); assay: in vitro display selection on recombinant human TNF
T1 construct: Biotinylated in the ELISA; purified recombinant protein in SPR; also called h TNF; huTNF

[2] = target: T1, Human TNF; assay: ELISA, captured DVD-Ig, biotin-human TNF titrated
Protocol: The following protocol is used to characterize the binding of TNF/IL-17 DVD-Ig proteins to human TNF and IL-17 by enzyme-linked immunosorbent assay (ELISA). An ELISA plate was coated with 50 μl per well of goat anti mouse IgG-Fc at 2 μg/ml, overnight at 4° C. The plate was washed 3 times with PBS/Tween. 50 μl Mab diluted to 1 μg/ml in PBS/0.1% BSA was added to appropriate wells and incubated for 1 hour at room temperature (RT). The plate was washed 3 times with PBS/Tween. 50 μl of serial diluted biotin-human TNF or IL-17 was added to appropriate wells and incubated for 1 hour at RT. The plate was washed 3 times with PBS/Tween. 50 μl of streptavidin-HRP diluted 1:10,000 in PBS/0.1% BSA was added to appropriate wells and incubated for 1 hour at RT. The plate was washed 3 times with PBS/Tween. 50 μl of TMB was added to appropriate wells and the reaction allowed to proceed for 1 minute. The reaction was stopped with 50 μl/well 2N H₂SO₄ and the absorbance read at 450 nm.

[3] = target: T1, Human TNF; assay: cell-based or functional assay
[4] = target: T2, Human IL-17A (human, UniProt Q16552 20-155, limits assumed); assay: ELISA, captured DVD-Ig, biotin-human IL-17 titrated
T2 construct: Biotinylated in the ELISAs; purified recombinant protein in SPR; also called hIL17A; hIL-17
Method in brief: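 Plate coated with goat anti-mouse IgG-Fc, then antibody captured at 1 μg/ml; serially diluted biotinylated human TNF or IL-17 added 1 h at RT. Bound ligand detected with streptavidin-HRP and TMB, absorbance at 450 nm.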

[5] = target: T2, Human IL-17A; assay: SPR (Biacore T200), DVD-Ig captured by anti-human IgG Fc, antigen in solution
Protocol: (§1) The binding of antibodies to purified recombinant IL-17 and TNFα proteins were determined by surface plasmon resonance-based measurements with a Biacore® T200 instrument (GE Healthcare) using running HBS-EP (10 mM HEPES [pH 7.4], 150 mM NaCl, 3 mM EDTA, and 0.005% surfactant P20) containing 0.1 mg/ml BSA at 25° C. All chemicals were obtained from Biacore® AB (GE Healthcare) or otherwise from a different source as described in the text. Approximately 5000 RU of goat anti-human IgG (Fcγ) fragment specific polyclonal antibody (Pierce Biotechnology Inc, Rockford, Ill.) diluted in 10 mM sodium acetate (pH 4.5) was directly immobilized across a CM5 research grade biosensor chip using a standard amine coupling kit according to manufacturer's instructions and procedures at 25 ug/ml. Unreacted moieties on the biosensor surface were blocked with ethanolamine. Modified carboxymethyl dextran surface in flowcell 2, 3 and 4 were used as a reaction surface. Modified carboxymethyl dextran with goat IgG in flow cell 1 was used as the reference surface. For kinetic analysis, rate equations derived from the 1:1 Langmuir binding model were fitted simultaneously to association and dissociation phases of all six injections (using global fit analysis with local float for Rmax) with the use of Biacore T200 Evaluation software v.1.0. Purified antibodies were diluted in HEPES-buffered saline for capture across goat anti-human IgG specific reaction surfaces. Antibodies to be captured as ligand (1-5 μg/ml) were injected over reaction matrices at a flow rate of 50 μl/minute. Association phase was monitored for 5 minutes, while dissociation phase was monitored for 10-60 minutes to accommodate for slower off-rates. The association and dissociation rate constants, ka (unit M-1 s-1) and kd (unit s-1) were determined under a continuous flow rate of 50 μl/minute. Rate constants were derived by making kinetic binding measurements at six different antigen concentrations ranging from 0.78 nM to 100 nM, depending on the species of IL-17 or TNFα tested. The association ka, dissociation rate kd and equilibrium dissociation constant KD were calculated with the use of the same Biacore T200 Evaluation software v.1.0.

[6] = target: T3, Rhesus TNFa (rhesus, UniProt P48094 77-233); assay: as above
T3 construct: also called Rhesus TNF-alpha
Protocol: as §1

[7] = target: T4, Cynomolgus monkey IL-17A (cynomolgus monkey, UniProt A0A2K5TTB0 24-155); assay: as above
T4 construct: also called Cyno IL-17AA; Cyno IL17AA
Protocol: as §1

[8] = target: T1, Human TNF; assay: as above
Protocol: as §1

T1 sequence (P01375 77-233 limits assumed): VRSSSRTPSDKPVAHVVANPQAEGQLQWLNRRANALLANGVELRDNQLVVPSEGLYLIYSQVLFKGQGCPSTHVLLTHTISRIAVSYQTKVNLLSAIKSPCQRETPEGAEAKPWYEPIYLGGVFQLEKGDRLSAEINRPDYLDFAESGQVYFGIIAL
T3 sequence (P48094 77-233 limits assumed): as the sequence (P01375 77-233 limits assumed) above, with R44T, T72N, R138L counted along it
T2 sequence (Q16552 20-155 limits assumed): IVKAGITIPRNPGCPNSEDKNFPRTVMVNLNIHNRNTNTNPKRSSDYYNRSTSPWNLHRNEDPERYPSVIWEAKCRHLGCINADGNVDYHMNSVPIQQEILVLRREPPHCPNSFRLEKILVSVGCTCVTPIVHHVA
T4 sequence (A0A2K5TTB0 entry or part of it): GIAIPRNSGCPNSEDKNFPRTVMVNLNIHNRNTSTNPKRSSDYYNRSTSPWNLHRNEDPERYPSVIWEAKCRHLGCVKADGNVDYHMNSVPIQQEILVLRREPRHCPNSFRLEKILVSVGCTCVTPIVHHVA

| Binder | binding result [1] | EC50 [2] | Potency IC50 (nM), L929 bioassay, human TNF [3] | EC50 [4] | Kd [5] | koff [5] | kon [5] | other results |
| --- | --- | --- | --- | --- | --- | --- | --- | --- |
| B1 | binds |  |  |  |  |  |  |  |
| B2 | binds |  |  |  |  |  |  |  |
| B3 |  | 0.22 nM | 0.037 nM | 0.081 nM |  |  |  |  |
| B4 |  | 0.095 nM | 0.033 nM | 0.088 nM | 0.0257 nM | 7.9e-06 s⁻¹ | 307000 M⁻¹ s⁻¹ | Kd [6]: 0.0137 nM; koff [6]: 3.03e-05 s⁻¹; kon [6]: 2.2e+06 M⁻¹ s⁻¹; Kd [7]: 0.00444 nM; koff [7]: 1.18e-06 s⁻¹; kon [7]: 267000 M⁻¹ s⁻¹; Kd [8]: 0.00561 nM; koff [8]: 2.4e-05 s⁻¹; kon [8]: 4.28e+06 M⁻¹ s⁻¹ |
| B5 |  | 0.22 nM | 0.031 nM | 0.078 nM | 0.0337 nM | 1.11e-05 s⁻¹ | 329000 M⁻¹ s⁻¹ | Kd [6]: 0.0108 nM; koff [6]: 2.39e-05 s⁻¹; kon [6]: 2.21e+06 M⁻¹ s⁻¹; Kd [7]: 0.00722 nM; koff [7]: 2.15e-06 s⁻¹; kon [7]: 299000 M⁻¹ s⁻¹; Kd [8]: 0.0055 nM; koff [8]: 2.37e-05 s⁻¹; kon [8]: 4.31e+06 M⁻¹ s⁻¹ |
| B6 |  | 0.1 nM |  | 0.05 nM |  |  |  |  |
| B7 |  | 0.119 nM | 0.027 nM | 0.142 nM | < 0.00452 nM | < 1e-06 s⁻¹ | 221000 M⁻¹ s⁻¹ |  |
| B8 |  |  | 2.56 nM |  |  |  |  |  |
| B9 | binds |  |  |  |  |  |  |  |
| B10 | binds |  |  |  |  |  |  |  |
